For assay [1], the target named is T1, LAMP1::histag (human, UniProt P11279 29-382).
T1 construct: extracellular domain without signal peptide, C-terminal 6 His tag, made in HEK293 cells; also called recombinant human LAMP1; human LAMP1 (29-382)
T1 sequence: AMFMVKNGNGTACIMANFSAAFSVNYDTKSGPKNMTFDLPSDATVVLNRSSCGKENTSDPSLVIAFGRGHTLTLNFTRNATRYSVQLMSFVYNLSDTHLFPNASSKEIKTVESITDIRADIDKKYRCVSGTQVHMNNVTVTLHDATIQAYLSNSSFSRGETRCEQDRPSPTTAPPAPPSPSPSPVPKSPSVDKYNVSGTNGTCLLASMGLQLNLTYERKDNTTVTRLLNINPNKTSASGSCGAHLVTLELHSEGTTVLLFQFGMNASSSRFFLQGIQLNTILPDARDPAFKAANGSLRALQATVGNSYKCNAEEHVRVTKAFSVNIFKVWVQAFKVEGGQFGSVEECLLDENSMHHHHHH
Put plainly: ELISA. Background: ELISA stands for enzyme-linked immunosorbent assay.

Assay [2] has as its target T2, cLAMP1::histag (cynomolgus monkey, UniProt P11279 29-380 (human entry)).
T2 construct: extracellular domain with C-terminal tag that includes 6 His; also called cynomolgus LAMP1 (27-380); cynomolgus monkey LAMP1 protein
T2 chain: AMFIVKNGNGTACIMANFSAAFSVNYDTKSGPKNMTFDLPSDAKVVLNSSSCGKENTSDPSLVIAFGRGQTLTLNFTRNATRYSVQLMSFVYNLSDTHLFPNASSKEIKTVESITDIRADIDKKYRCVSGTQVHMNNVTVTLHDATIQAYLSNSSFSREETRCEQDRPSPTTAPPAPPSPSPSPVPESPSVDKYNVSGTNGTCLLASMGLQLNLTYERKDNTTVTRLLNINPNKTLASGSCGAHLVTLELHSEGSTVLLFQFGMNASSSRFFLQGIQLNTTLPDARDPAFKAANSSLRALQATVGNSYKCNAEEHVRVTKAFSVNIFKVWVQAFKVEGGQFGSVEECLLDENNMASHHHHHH
Put plainly: ELISA.

The target of assay [3] is T3, recombinant human LAMP2 with a C-terminal 10 His-tag (human, UniProt P13473 29-375).
T3 construct: bought; also called soluble LAMP2 protein (R&D Systems 6228-LM)
T3 sequence (P13473 other isoform, or with tags, fused parts or gaps): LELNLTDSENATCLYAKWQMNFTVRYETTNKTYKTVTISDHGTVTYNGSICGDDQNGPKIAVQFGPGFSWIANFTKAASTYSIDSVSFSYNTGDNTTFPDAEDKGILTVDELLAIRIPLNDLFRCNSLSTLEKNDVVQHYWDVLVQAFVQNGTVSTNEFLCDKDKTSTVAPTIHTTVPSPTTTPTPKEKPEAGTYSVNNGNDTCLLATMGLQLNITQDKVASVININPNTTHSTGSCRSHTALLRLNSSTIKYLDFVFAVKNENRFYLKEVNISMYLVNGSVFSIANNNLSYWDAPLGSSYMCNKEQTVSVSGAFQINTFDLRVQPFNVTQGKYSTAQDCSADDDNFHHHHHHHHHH
Put plainly: ELISA with soluble LAMP1 or LAMP2.

For assay [4], the target named is T1, LAMP1::histag. Briefly: ELISA on recombinant human LAMP1.
Assay [5] has as its target T2, cLAMP1::histag. Briefly: ELISA on recombinant cynomolgus LAMP1.
Assay [6] concerns the target T3, recombinant human LAMP2 with a …. Put plainly: ELISA on coated soluble human LAMP2.
Assay [7] addresses T4, human LAMP1 at the cell surface (human, UniProt P11279 29-417).
T4 construct: native on tumour cells (PDX, Colo205, SW480, LS174T) or from the cloned CDS NM_005561.3 in HEK293 and HCT116; signal peptide 1-28 left out; also called huLAMP1; full length human LAMP1
T4 sequence: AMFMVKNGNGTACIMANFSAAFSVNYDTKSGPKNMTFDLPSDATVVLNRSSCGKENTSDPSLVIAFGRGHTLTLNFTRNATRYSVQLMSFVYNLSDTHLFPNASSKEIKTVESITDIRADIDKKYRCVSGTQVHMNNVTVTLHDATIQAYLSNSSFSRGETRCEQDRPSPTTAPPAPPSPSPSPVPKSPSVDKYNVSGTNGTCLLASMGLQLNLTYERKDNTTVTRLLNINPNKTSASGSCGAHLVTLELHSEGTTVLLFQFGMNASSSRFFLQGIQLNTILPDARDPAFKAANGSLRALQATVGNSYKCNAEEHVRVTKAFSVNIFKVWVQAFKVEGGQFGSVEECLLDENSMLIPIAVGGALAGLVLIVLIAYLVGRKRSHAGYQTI
Briefly: flow cytometry, dissociated CR-IGR-034P colon PDX cells. On the procedure: Advanced human primary colon tumor CR-IGR-034P was obtained from Patient-derived xenograft in mice. Tumor CR-IGR-034P was enzymatically dissociated using collagenase Type IV (Invitrogen; #17104-019) and deoxyribonuclease I (Invitrogen; #18047-019) for 1 h at 4° C. Cell viability was estimated by Viacount application using Guava® easyCyte™ 8HT Flow Cytometry System. […] 100 μL/well of goat anti-mouse IgG conjugated with Alexa647 (Invitrogen; # A2135) or goat anti-human IgG conjugated with Alexa488 (Invitrogen; # A11013) was added for 45 min at 4° C. and washed three times with PBS 1% BSA. The antibody binding was evaluated after centrifugation and resuspension of cells by adding 200 μl/well PBS 1% BSA and read using Guava® easyCyte™ 8HT Flow Cytometry System. EC50 values were estimated using BIOST@T-SPEED software.
Background: In flow cytometry, cells or beads pass a laser one at a time.

The target in assay [8] is T4, human LAMP1 at the cell surface. Put plainly: cell-based or functional assay.
Another assay has as its target T5, LAMP1_mL1_hL234_ΔGYQTI (mouse; human).
T5 construct: on cells; also called pXL5668
T5 chain: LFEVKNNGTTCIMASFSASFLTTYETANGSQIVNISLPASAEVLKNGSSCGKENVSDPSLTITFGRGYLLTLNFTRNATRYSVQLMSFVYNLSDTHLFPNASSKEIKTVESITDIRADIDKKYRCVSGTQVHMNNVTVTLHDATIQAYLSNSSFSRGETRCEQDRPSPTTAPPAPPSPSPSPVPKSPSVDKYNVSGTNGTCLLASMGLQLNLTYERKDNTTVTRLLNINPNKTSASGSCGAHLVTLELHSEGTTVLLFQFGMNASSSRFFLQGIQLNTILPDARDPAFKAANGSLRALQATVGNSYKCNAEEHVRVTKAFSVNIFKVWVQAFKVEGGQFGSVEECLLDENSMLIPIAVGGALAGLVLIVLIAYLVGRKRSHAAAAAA
Put plainly: flow cytometry, transfected 293-F cells.

In assay [9] the target is T6, LAMP1_mL1_hL2_mL34_ΔGYQTI (mouse; human, UniProt P11438 25-369).
T6 construct: on cells; also called pXL5988; not shown: transmembrane domain and cytoplasmic tail with GYQTI replaced by 5 Ala
T6 chain: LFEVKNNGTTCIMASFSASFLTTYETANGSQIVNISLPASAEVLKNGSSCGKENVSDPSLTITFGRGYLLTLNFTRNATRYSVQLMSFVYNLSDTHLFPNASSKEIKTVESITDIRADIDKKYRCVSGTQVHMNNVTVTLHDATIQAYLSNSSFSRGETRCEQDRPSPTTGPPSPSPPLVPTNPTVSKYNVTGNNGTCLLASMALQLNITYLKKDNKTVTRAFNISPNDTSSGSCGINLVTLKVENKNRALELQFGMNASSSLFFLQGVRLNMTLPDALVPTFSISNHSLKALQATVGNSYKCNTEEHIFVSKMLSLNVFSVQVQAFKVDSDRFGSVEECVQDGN
Put plainly: flow cytometry, transfected 293-F cells.

B1: MAb4 (antibody, mouse IgG1, V domains shown)
VH: QVQLQQSGAELVRPGTSVKVSCKASGYAFTNYLIEWVKQRPGQGLEWIGVINPGSGGTNYNEKFKGKATLTADKSSSTAYMQLSSLTSDDSAVYFCARYRSYDWYFDVWGAGTTVTVSS
VL: DIQMTQSPASLSASVGETVTITCRVSGNIHNYLAWYQQKQGKSPQLLVYNAKTLADGVPSRFSGSGSGTQYSLKINSLQPEDFGSYYCQHFWSNPYTFGGGTKLEIK
notes: also called antibody from hybridoma 88LAMP1-2
For B1, the EC50 in the assay with LAMP1::histag [1] is 0.2 to 0.4 nM; in the assay with cLAMP1::histag [2] it was 0.2 to 0.4 nM; with LAMP1::histag [4], 0.39 nM; with cLAMP1::histag [5], 0.22 nM; in assay [7] it was 1.3 nM. The “fold difference of EC50 (LAMP1 versus LAMP2)” value in assay [3] is over 100 fold. The binding result in assay [6] is reported as “no binding (tested: 10 µg/mL)”.

B2: chMAb2 (antibody, human IgG1, kappa)
heavy: not shown
light: NIVLTQSPVSLAVSLGQRATISCRASESVDINGNTFMHWYQQKPGQSPKLVIYAASNIESGVPARFSGSGSSTDFTFTIDPVEADDVATYYCQQNIEDPWTFGGGTKVEIKRTVAAPSVFIFPPSDEQLKSGTASVVCLLNNFYPREAKVQWKVDNALQSGNSQESVTEQDSKDSTYSLSSTLTLSKADYEKHKVYACEVTHQGLSSPVTKSFNRGEC
notes: chimeric, human IgG1, Ckappa
Consider B2, for which, in assay [8], the “ADCC EC50, NK batch 6712562616” value was determined as 2 nM; the “ADCC EC50, NK batch 67125626389” value stood at 0.1 nM; the “ADCC EC50, NK batch 67125903091” value amounted to 0.5 nM. Besides, the binding result with LAMP1_mL1_hL234_ΔGYQTI was “no binding”. The binding result in assay [9] is on record as “no binding”.

As usually defined, the EC50 is the concentration that produces a half-maximal response.
